The results in this text go back to publication PMC8287961.

This assay concerns the target KAP1 (UniProt Q13263). In words: GFP-Trap IP from nuclear lysate, coomassie gel. As to conditions: reference: GFP-HP1β wild type; sites S89,S91.

As for “HP1β (from UniProt P83917) GFP-HP1β S89/91A”, the “binding against the reference” value is on record as “weaker”.
